Laboratory results from the supplement of paper PMC10724198.
± gives the standard deviation of the averaged measurements.

test system: Saccharomyces cerevisiae; test: protein stability index of tFT-peptide fusion (C-terminal peptide) (PSI (0-1 scale)); higher = more stable (slower turnover); conditions: genetic background: wild type; temperature: 30 C
Method: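 MPS profiling in S. cerevisiae of the yeast C-terminome library: the last 12 aa of each annotated ORF are fused to the C-terminus of a sfGFP-mCherry timer, after a GGGS linker. Cells are FACS-sorted into 8 mCherry/sfGFP bins and deep-sequenced. PSI runs from 0 (unstable) to 1 (stable); wild type and das1Δ backgrounds, two technical replicates each.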

KEFKQFEFHNRR [RRP36 C-terminal 12 aa] was tested. Which protein stability index did it give?
Its protein stability index is 0.681 ± 0.011.

For KERSHHFVRNMN [YKL102C C-terminal 12 aa], which protein stability index is on record?
The protein stability index was 0.637 ± 0.048.

For KERTHLFQLIRK [EFM6 C-terminal 12 aa], which protein stability index is on record?
The protein stability index was 0.6923 ± 0.0018.

For KEVPLDFDPDRN [ANP1 C-terminal 12 aa], which protein stability index is on record?
Its protein stability index is 0.688 ± 0.022.

For KEWKEKEKTGKQ [MPC1 C-terminal 12 aa], which protein stability index is on record?
The protein stability index was 0.702 ± 0.022.

KFDKPLYERLET [YNR014W C-terminal 12 aa] was tested. Which protein stability index did it give?
The protein stability index was 0.651 ± 0.044.

Which protein stability index does the source give for KFQDVLDNFLQG [ETT1 C-terminal 12 aa] here?
Its protein stability index is 0.685 ± 0.01.

Which protein stability index does the source give for KFSSTSRYMQYN [RPT1 C-terminal 12 aa] here?
Its protein stability index is 0.642 ± 0.017.

KGATIKEIVLND [ATH1 C-terminal 12 aa] was tested. Which protein stability index did it give?
Its protein stability index is 0.672 ± 0.012.

How did the protein stability index turn out when KGGRLSSKPIIM [SPT3 C-terminal 12 aa] was run?
The protein stability index was 0.686 ± 0.034.

KGVFWDPACVIA [MFA1 C-terminal 12 aa] was tested. Which protein stability index did it give?
The protein stability index was 0.713 ± 0.031.

For KHCPYVFIPYVF [ERG4 C-terminal 12 aa], which protein stability index is on record?
The protein stability index was 0.273 ± 0.0033.

KHGLNDWIVGQK [YPL225W C-terminal 12 aa] was tested. Which protein stability index did it give?
The protein stability index was 0.745 ± 0.035.

How did the protein stability index turn out when KHKNILFFNHNT [YJR162C C-terminal 12 aa] was run?
Its protein stability index is 0.199 ± 0.0036.

“KHKNILSFNDNT [YER188C-A C-terminal 12 aa]” was tested. Which protein stability index did it give?
The protein stability index was 0.747 ± 0.068.

KHKQYFWKRPTK [PLM2 C-terminal 12 aa] was tested. Which protein stability index did it give?
Its protein stability index is 0.692 ± 0.019.

KHVGKGCGYSYH [STP4 C-terminal 12 aa] was tested. Which protein stability index did it give?
Its protein stability index is 0.6985 ± 0.0052.

For KILDEINLDRIK [HEM3 C-terminal 12 aa], which protein stability index is on record?
Its protein stability index is 0.681 ± 0.052.

For KILTQHLQDLQS [RKM2 C-terminal 12 aa], which protein stability index is on record?
Its protein stability index is 0.714 ± 0.077.

For KIQWDIDPQLDG [SSY5 C-terminal 12 aa], which protein stability index is on record?
Its protein stability index is 0.723 ± 0.082.

KIVSGLVRTNSS [YIL060W C-terminal 12 aa] was tested. Which protein stability index did it give?
Its protein stability index is 0.717 ± 0.024.

Which protein stability index does the source give for KKARKMPTWVKR [MRPS9 C-terminal 12 aa] here?
The protein stability index was 0.65752 ± 7.3e-05.

With KKKLVKKTKSKK [RIO1 C-terminal 12 aa] as the sequence, how does the protein stability index read?
Its protein stability index is 0.705 ± 0.081.

For KKKQNDGKSLRS [DBP8 C-terminal 12 aa], which protein stability index is on record?
Its protein stability index is 0.732 ± 0.0081.

For KLAKPAPTSKLD [TDA4 C-terminal 12 aa], which protein stability index is on record?
The protein stability index was 0.692 ± 0.025.

With KLIHIPIRYVIV [SSS1 C-terminal 12 aa] as the sequence, how does the protein stability index read?
Its protein stability index is 0.3647 ± 0.00092.

For KLQPQVYKPWSL [RSC8 C-terminal 12 aa], which protein stability index is on record?
Its protein stability index is 0.703 ± 0.0092.

How did the protein stability index turn out when KNHDFKDCADIF [SWH1 C-terminal 12 aa] was run?
Its protein stability index is 0.688 ± 0.043.

Which protein stability index does the source give for KNIPEKFKNGIF [SSP120 C-terminal 12 aa] here?
Its protein stability index is 0.647 ± 0.0098.

How did the protein stability index turn out when KNLQNELEKNNA [RTN1 C-terminal 12 aa] was run?
The protein stability index was 0.6647 ± 0.0021.

For KNLTRTSVSFIG [TRS85 C-terminal 12 aa], which protein stability index is on record?
Its protein stability index is 0.702 ± 0.037.

For KNSNLSPTQIEL [SSK1 C-terminal 12 aa], which protein stability index is on record?
Its protein stability index is 0.693 ± 0.024.

KPFYYKIYRFWC [SAM3 C-terminal 12 aa] was tested. Which protein stability index did it give?
The protein stability index was 0.3886 ± 0.0019.

For KPGGSKKRKTKA [RFC1 C-terminal 12 aa], which protein stability index is on record?
The protein stability index was 0.747 ± 0.15.

KPGLTVYSIELL [SMP3 C-terminal 12 aa] was tested. Which protein stability index did it give?
Its protein stability index is 0.692 ± 0.011.

Which protein stability index does the source give for KPMAYSNGGFGL [PPT1 C-terminal 12 aa] here?
Its protein stability index is 0.668 ± 0.015.

How did the protein stability index turn out when KQAQEGTKNLKI [PAC10 C-terminal 12 aa] was run?
Its protein stability index is 0.666 ± 0.029.

For “KQRFLLCWSTKL [YHR131W-A C-terminal 12 aa]”, which protein stability index is on record?
Its protein stability index is 0.55 ± 0.04.

Which protein stability index does the source give for KQYSSPEICFRV [YBR134W C-terminal 12 aa] here?
The protein stability index was 0.663 ± 0.014.

KRAENNAQKKTN [ERG25 C-terminal 12 aa] was tested. Which protein stability index did it give?
The protein stability index was 0.495 ± 0.0083.

For KRRPYVRAHAKW [YGR051C C-terminal 12 aa], which protein stability index is on record?
The protein stability index was 0.698 ± 0.05.

How did the protein stability index turn out when “KRRSDSKESRKL [YPR145C-A C-terminal 12 aa]” was run?
The protein stability index was 0.673 ± 0.03.

Which protein stability index does the source give for KSQISVSFYRDN [YPR027C C-terminal 12 aa] here?
Its protein stability index is 0.6736 ± 0.0023.

KSVRIAIDKPIR [ALD5 C-terminal 12 aa] was tested. Which protein stability index did it give?
The protein stability index was 0.666 ± 0.018.

KTGKKNKVAKKN [SRP14 C-terminal 12 aa] was tested. Which protein stability index did it give?
Its protein stability index is 0.692 ± 0.021.

“KTHRSRSSRKGN [YMR135W-A C-terminal 12 aa]” was tested. Which protein stability index did it give?
The protein stability index was 0.704 ± 0.023.

Which protein stability index does the source give for KTQDYGKKYNSG [SIZ1 C-terminal 12 aa] here?
The protein stability index was 0.727 ± 0.0097.

For KTVSDEEYAYIV [APM2 C-terminal 12 aa], which protein stability index is on record?
The protein stability index was 0.707 ± 0.011.

With KTVSPNWEVKEL [CYM1 C-terminal 12 aa] as the sequence, how does the protein stability index read?
Its protein stability index is 0.702 ± 0.019.

With KTYIKNDVEIFN [HBN1 C-terminal 12 aa] as the sequence, how does the protein stability index read?
The protein stability index was 0.726 ± 0.067.

KVNGDIYRLPPS [MBA1 C-terminal 12 aa] was tested. Which protein stability index did it give?
The protein stability index was 0.677 ± 0.0092.

KVRTQSKQPQEE [SAW1 C-terminal 12 aa] was tested. Which protein stability index did it give?
Its protein stability index is 0.673 ± 0.026.

With KVSPADAAKKAL [RPS26A C-terminal 12 aa] as the sequence, how does the protein stability index read?
Its protein stability index is 0.718 ± 0.02.

For KVTSANEHTSAV [PEX27 C-terminal 12 aa], which protein stability index is on record?
Its protein stability index is 0.697 ± 0.013.

For KWGLSKKDGRQA [SLY41 C-terminal 12 aa], which protein stability index is on record?
Its protein stability index is 0.7036 ± 0.0043.

KWLWRELEESSL [OCA5 C-terminal 12 aa] was tested. Which protein stability index did it give?
The protein stability index was 0.7234 ± 0.0014.

Which protein stability index does the source give for KYKFYDDENLTE [SOL1 C-terminal 12 aa] here?
Its protein stability index is 0.733 ± 0.081.

Which protein stability index does the source give for KYRRQVRYTQRT [YGL052W C-terminal 12 aa] here?
The protein stability index was 0.698 ± 0.013.

How did the protein stability index turn out when KYYETVGKADII [AIM36 C-terminal 12 aa] was run?
Its protein stability index is 0.697 ± 0.025.

Which protein stability index does the source give for LADAGHLWHSIT [YNL120C C-terminal 12 aa] here?
The protein stability index was 0.6128 ± 0.00091.

How did the protein stability index turn out when LADLRVYLRVPG [YGL088W C-terminal 12 aa] was run?
Its protein stability index is 0.568 ± 0.013.

LAFIAACKKYIY [IKS1 C-terminal 12 aa] was tested. Which protein stability index did it give?
Its protein stability index is 0.487 ± 0.026.

Which protein stability index does the source give for LAITIAALCASL [EXG2 C-terminal 12 aa] here?
Its protein stability index is 0.572 ± 0.018.

How did the protein stability index turn out when LAPLQFSGIVRS [YDR274C C-terminal 12 aa] was run?
Its protein stability index is 0.682 ± 0.045.

How did the protein stability index turn out when LAVEETIGFGQE [RSP5 C-terminal 12 aa] was run?
Its protein stability index is 0.692 ± 0.011.

For LAWNPNLSAKRF [PRP46 C-terminal 12 aa], which protein stability index is on record?
Its protein stability index is 0.705 ± 0.021.

LDDTPAPTATNL [NUD1 C-terminal 12 aa] was tested. Which protein stability index did it give?
Its protein stability index is 0.701 ± 0.034.

For LDIFCLIFRKRT [YPR076W C-terminal 12 aa], which protein stability index is on record?
Its protein stability index is 0.5061 ± 0.00095.

LDSVFSKFCIGK [MSS1 C-terminal 12 aa] was tested. Which protein stability index did it give?
The protein stability index was 0.703 ± 0.082.

For LEEETLPPSQKK [PYC2 C-terminal 12 aa], which protein stability index is on record?
The protein stability index was 0.647 ± 0.02.

Which protein stability index does the source give for LEFVRGGSRQFT [TIM44 C-terminal 12 aa] here?
Its protein stability index is 0.713 ± 0.02.

LEKHTASDTSCI [YAL066W C-terminal 12 aa] was tested. Which protein stability index did it give?
Its protein stability index is 0.692 ± 0.072.

For LENIKKAKEFFQ [GTR1 C-terminal 12 aa], which protein stability index is on record?
Its protein stability index is 0.705 ± 0.027.

Which protein stability index does the source give for LERLRYLFPNYW [MEU1 C-terminal 12 aa] here?
Its protein stability index is 0.717 ± 0.051.

With “LFFQDIERFFSC [YMR194C-A C-terminal 12 aa]” as the sequence, how does the protein stability index read?
Its protein stability index is 0.7619 ± 0.0028.

Which protein stability index does the source give for LHVISKVAGKLF [SBH1 C-terminal 12 aa] here?
The protein stability index was 0.656 ± 0.014.

For LIDLCCSCAGGM [MNC1 C-terminal 12 aa], which protein stability index is on record?
The protein stability index was 0.643 ± 0.0049.

With “LIPELYSVLDGF [YDL007C-A C-terminal 12 aa]” as the sequence, how does the protein stability index read?
The protein stability index was 0.74 ± 0.051.

With LISEFQKKQAKK [MEF1 C-terminal 12 aa] as the sequence, how does the protein stability index read?
The protein stability index was 0.691 ± 0.038.

With LKDNLAKPKTRR [VBA2 C-terminal 12 aa] as the sequence, how does the protein stability index read?
Its protein stability index is 0.708 ± 0.031.

With LKILRQKMNHQN [ATG1 C-terminal 12 aa] as the sequence, how does the protein stability index read?
Its protein stability index is 0.207 ± 0.042.

For LKNGDKPHLLKF [RPL6B C-terminal 12 aa], which protein stability index is on record?
The protein stability index was 0.686 ± 0.015.
